The target in test [1] is hMET.mmh (human) (UniProt P08581). Nature of the test: SPR Biacore T-200, antibody captured by anti-human Fc, 90 nM hMET.mmh, 25 C (second run).
Test [2] has as its target human MET on EBC-1, NCI-H441 and NCI-H358 cells (human) (UniProt P08581). Nature of the test: cell binding assay on EBC-1 cells, n=1, gamma counting.

Regarding Non-binding isotype Control (antibody), in test [1], the Antigen Bound is -1.46 RU/nm.
In test [2], “non-specific DFO-Ab radioimmunoconjugate (antibody)” showed an IR (%) (immunoreactivity, percent of activity bound to cells) of 2.8%.

The values above are taken from patent publication US20210077638A1.
